Assays:
[1] = biological target: T1, PHD1KDM5B (306–360 aa) (Homo sapiens, UniProt Q9UGL1); assay: ITC binding of H3 peptides to PHD1KDM5B
T1 construct: PHDKDM5B (residues 306–360 aa); GST (N, cleaved yes); made in house
T1 sequence (Q9UGL1 306-360): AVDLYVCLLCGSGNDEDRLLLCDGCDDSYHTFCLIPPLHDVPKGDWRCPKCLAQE
Excerpt: The details of the preparation, purification, crystallization and determination of the PHDKDM5B (residues 306–360 aa) X-ray structure were previously described (Guo et al., [2011]). The modified pGEX-6p-1 vectors expressed proteins with the N-terminal GST tag, which is removable by cleavage with a 3C protease, enabling the use of non-tagged proteins in our studies. Only the X-ray structure of free PHD1KDM5B was obtained.
To study the binding affinities in vitro or to construct different NMR samples of the complex, H3K4 peptides without modifications (with the ARTKQTARKS sequence or […] sequence) or with some modifications (H3R2me1, R2 monomethylation; H3R2me2s, R2 symmetric dimethylation; H3R2me2a, R2 asymmetric dimethylation; H3K4me1/2/3, K4 mono-, di-, and tri-methylation; H3K9me1/2/3, K9 mono-, di- and tri-methylation; H3 peptide A1G, R2A, T3V, K4A, Q5E, T6V mutants without any modification) were purchased from GL Biochem Ltd. (Shanghai, China), and their purity was confirmed by HPLC and mass spectrometry.
To investigate whether the PHD1KDM5B finger and its mutants interact with unmodified or methylated H3K4 or H3K4mutants, the binding affinities of PHD1KDM5B or its mutants to H3 peptides were studied. An ITC-200 microcalorimeter (GE Healthcare) was used with a buffer containing 20 mmol/L Tris, 150 mmol/L NaCl, and 1% Triton X-100, pH 7.5 at 25°C. The reference titration of small molecules in the buffer was subtracted from the experimental data, and the data were fitted using the Origin 7.0 (OriginLab Corporation) software.

[2] = biological target: PHD1 finger of KDM5B (residues 306-360) (UniProt Q9UGL1); assay: ITC; ITC-200, 20 mmol/L Tris, 150 mmol/L NaCl, 1% Triton X-100, pH 7.5, 25°C
[3] = biological target: H3K4 (1-10aa) K4A (Homo sapiens); assay: ITC; conditions: domain or fragment; chains chain
[4] = biological target: H3K4 (1-10aa) Q5E (Homo sapiens); assay: ITC; conditions: domain or fragment; chains chain
[5] = biological target: T2, KDM5B-PHD1-Y334A (Homo sapiens); assay: ITC
T2 chain: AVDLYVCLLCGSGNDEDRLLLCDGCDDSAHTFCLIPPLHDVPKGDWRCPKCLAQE

[6] = biological target: T3, KDM5B-PHD1-L309A (Homo sapiens); assay: ITC
T3 chain: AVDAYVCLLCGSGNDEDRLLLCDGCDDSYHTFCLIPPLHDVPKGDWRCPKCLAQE

[7] = biological target: T4, KDM5B-PHD1-V311A (Homo sapiens); assay: ITC
T4 chain: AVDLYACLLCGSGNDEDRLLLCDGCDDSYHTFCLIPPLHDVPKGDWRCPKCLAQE

[8] = biological target: T5, KDM5B-PHD1-D345A (Homo sapiens); assay: ITC
T5 chain: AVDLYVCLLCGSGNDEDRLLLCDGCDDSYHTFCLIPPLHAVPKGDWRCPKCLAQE

[9] = biological target: T6, KDM5B-PHD1-S333A (Homo sapiens); assay: ITC
T6 chain: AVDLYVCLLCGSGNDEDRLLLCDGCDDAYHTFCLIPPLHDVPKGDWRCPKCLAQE

[10] = biological target: T7, KDM5B-PHD1-L324A (Homo sapiens); assay: ITC
T7 chain: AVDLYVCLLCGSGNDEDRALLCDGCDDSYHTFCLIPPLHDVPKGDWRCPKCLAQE

[11] = biological target: T8, KDM5B-PHD1-D322A (Homo sapiens); assay: ITC
T8 chain: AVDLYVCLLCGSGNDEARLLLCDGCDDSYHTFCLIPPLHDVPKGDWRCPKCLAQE

[12] = biological target: T9, KDM5B-PHD1-D332A (Homo sapiens); assay: ITC
T9 chain: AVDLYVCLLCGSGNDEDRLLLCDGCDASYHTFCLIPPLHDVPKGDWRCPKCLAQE

[13] = biological target: T10, PHD1 finger of KDM5B (residues 306-360) (UniProt Q9UGL1 306-360); assay: ITC; ITC-200, 20 mmol/L Tris, 150 mmol/L NaCl, 1% Triton X-100, pH 7.5, 25°C; conditions: both partners purified
T10 construct: 15N- or 13C/15N-labelled (M9 medium) for the NMR experiments; GST removed with 3C protease; also called PHD1_(KDM5B); PHD_(KDM5B); source: recombinant from modified pGEX-6p-1, purified; preparation described in Guo et al., 2011; not shown: GST, N-terminal, cleaved
T10 sequence (looked up): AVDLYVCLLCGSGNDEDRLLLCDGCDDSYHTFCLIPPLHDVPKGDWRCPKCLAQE

[14] = biological target: T11, PHD1_(KDM5B) Y310F mutant (UniProt Q9UGL1 306-360, Y310F); assay: as above; conditions: both partners purified
T11 construct: also called PHD1 Y310F; source: recombinant from modified pGEX-6p-1, site-directed mutagenesis; not shown: GST, N-terminal, cleaved
T11 sequence (looked up): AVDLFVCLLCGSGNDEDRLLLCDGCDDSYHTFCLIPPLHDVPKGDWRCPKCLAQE

[15] = biological target: T12, PHD1_(KDM5B) E321A mutant (UniProt Q9UGL1 306-360, E321A); assay: as above; conditions: both partners purified
T12 construct: also called PHD1 E321A; source: recombinant from modified pGEX-6p-1, site-directed mutagenesis; not shown: GST, N-terminal, cleaved
T12 sequence (looked up): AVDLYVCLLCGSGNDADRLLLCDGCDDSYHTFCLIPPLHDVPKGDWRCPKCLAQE

[16] = biological target: T13, PHD1_(KDM5B) L326A mutant (UniProt Q9UGL1 306-360, L326A); assay: as above; conditions: both partners purified
T13 construct: also called PHD1 L326A; source: recombinant from modified pGEX-6p-1, site-directed mutagenesis; not shown: GST, N-terminal, cleaved
T13 sequence (looked up): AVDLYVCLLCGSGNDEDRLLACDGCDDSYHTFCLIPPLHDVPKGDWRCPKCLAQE

[17] = biological target: T14, PHD1_(KDM5B) D328A mutant (UniProt Q9UGL1 306-360, D328A); assay: as above; conditions: both partners purified
T14 construct: also called PHD1 D328A; source: recombinant from modified pGEX-6p-1, site-directed mutagenesis; not shown: GST, N-terminal, cleaved
T14 sequence (looked up): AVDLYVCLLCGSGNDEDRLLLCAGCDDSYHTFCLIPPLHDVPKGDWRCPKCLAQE

[18] = biological target: T15, PHD1_(KDM5B) D308A mutant (UniProt Q9UGL1 306-360, D308A); assay: as above; conditions: both partners purified
T15 construct: also called PHD1 D308A; source: recombinant from modified pGEX-6p-1, site-directed mutagenesis; not shown: GST, N-terminal, cleaved
T15 sequence (looked up): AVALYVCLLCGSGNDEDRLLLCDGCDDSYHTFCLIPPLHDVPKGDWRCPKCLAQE

[19] = biological target: T16, PHD1_(KDM5B) Y310A mutant (UniProt Q9UGL1 306-360, Y310A); assay: as above; conditions: both partners purified
T16 construct: also called PHD1 Y310A; source: recombinant from modified pGEX-6p-1, site-directed mutagenesis; not shown: GST, N-terminal, cleaved
T16 sequence (looked up): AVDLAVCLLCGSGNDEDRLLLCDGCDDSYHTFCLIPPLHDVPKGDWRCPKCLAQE

[20] = ITC-200, 20 mmol/L Tris, 150 mmol/L NaCl, 1% Triton X-100, pH 7.5, 25°C, H3 peptides residues 1–10, means (± s.d.) of at least three experiments
[21] = Table S1, pH 7.5, 25°C, H3 peptides (1-10aa), N.D. means non-detectable

## CC(C)[C@H](NC(=O)[C@H](CCC(N)=O)NC(=O)[C@H](CCCCN)NC(=O)[C@@H](NC(=O)[C@H](CCCNC(=N)N)NC(=O)[C@H](C)N)[C@@H](C)O)C(=O)N[C@@H](C)C(=O)N[C@@H](CCCNC(=N)N)C(=O)N[C@@H](CCCCN)C(=O)N[C@@H](CO)C(=O)O [H3K4 (1-10aa) T6V]
[1]; [20]
  Kd: 61.3 ± 1.6 µM

## H3K4 (1-10aa) K4E: unmodified H3 peptide (1-10aa) K4E mutant (ARTEQTARKS; UniProt P68431 2-11, looked up, variant K4E)
[1]; [20]
  KD: non-detectable

## H3 peptide A1G mutant (from UniProt P68431 2-11)
[2]
  Kd: 305 µM

## H3K4 (1-10aa) R2E: unmodified H3 peptide (1-10aa) R2E mutant (AETKQTARKS; UniProt P68431 2-11, looked up, variant R2E)
[1]; [20]
  KD: too small to detect

## C[C@H](N)C(=O)N[C@@H](CCCNC(=N)N)C(=O)N[C@H](C(=O)N[C@@H](C)C(=O)N[C@@H](CCC(N)=O)C(=O)N[C@H](C(=O)N[C@@H](C)C(=O)N[C@@H](CCCNC(=N)N)C(=O)N[C@@H](CCCCN)C(=O)N[C@@H](CO)C(=O)O)[C@@H](C)O)[C@@H](C)O [H3K4 (1-10aa) K4A]
[1]; [21]
  Kd: 15.9 ± 1.2 µM

## CC(C)[C@H](NC(=O)[C@H](CCCNC(=N)N)NC(=O)[C@H](C)N)C(=O)N[C@@H](CCCCN)C(=O)N[C@@H](CCC(N)=O)C(=O)N[C@H](C(=O)N[C@@H](C)C(=O)N[C@@H](CCCNC(=N)N)C(=O)N[C@@H](CCCCN)C(=O)N[C@@H](CO)C(=O)O)[C@@H](C)O [H3K4 (1-10aa) T3V]
[1]; [20]
  Kd: 57.1 ± 2.2 µM

## H3 peptide R2A mutant (from UniProt P68431 2-11)
[2]
  Kd: 370 µM

## C[C@H](N)C(=O)N[C@@H](C)C(=O)N[C@H](C(=O)N[C@@H](CCCCN)C(=O)N[C@@H](CCC(N)=O)C(=O)N[C@H](C(=O)N[C@@H](C)C(=O)N[C@@H](CCCNC(=N)N)C(=O)N[C@@H](CCCCN)C(=O)N[C@@H](CO)C(=O)O)[C@@H](C)O)[C@@H](C)O [H3K4 (1-10aa) R2A]
[1]; [20]
  Kd: 370 ± 52.1 µM

## H3 peptide T6V mutant (from UniProt P68431 2-11)
[2]
  Kd: 61.3 µM

## C[C@H](N)C(=O)N[C@@H](CCCNC(=N)N)C(=O)N[C@H](C(=O)N[C@@H](CCCCN)C(=O)N[C@@H](CCC(=O)O)C(=O)N[C@H](C(=O)N[C@@H](C)C(=O)N[C@@H](CCCNC(=N)N)C(=O)N[C@@H](CCCCN)C(=O)N[C@@H](CO)C(=O)O)[C@@H](C)O)[C@@H](C)O [H3K4 (1-10aa) Q5E]
[1]; [21]
  Kd: 21.4 ± 1.7 µM

## C[C@H](NC(=O)[C@@H](NC(=O)[C@H](CCC(N)=O)NC(=O)[C@H](CCCCN)NC(=O)[C@@H](NC(=O)[C@H](CCCNC(=N)N)NC(=O)CN)[C@@H](C)O)[C@@H](C)O)C(=O)N[C@@H](CCCNC(=N)N)C(=O)N[C@@H](CCCCN)C(=O)N[C@@H](CO)C(=O)O [H3K4 (1-10aa) A1G]
[1]; [20]
  Kd: 305 ± 11.7 µM

## H3 peptide T3V mutant (from UniProt P68431 2-11)
[2]
  Kd: 57.1 µM

B1: PHD1 finger of KDM5B (residues 306-360), Q9UGL1 306-360 (protein)
chain: AVDLYVCLLCGSGNDEDRLLLCDGCDDSYHTFCLIPPLHDVPKGDWRCPKCLAQE
[3]
  Kd: 15.9 µM
[4]
  Kd: 21.4 µM

B2: unmodified H3K4 peptide (residues 1-10) (peptide)
peptide: ARTKQTARKS
notes: histone H3 N-terminal tail, residues 1-10; also called H3K4me0; H3K4me0 peptide; source: synthetic peptide, bought: GL Biochem Ltd. (Shanghai, China)
[5]
  Kd: 12.6 µM
[6]
  Kd: 8.3 µM
[7]
  Kd: 8.2 µM
[8]
  Kd: 6.7 µM
[9]
  Kd: 12.9 µM
[10]
  Kd: 15.3 µM
[11]
  Kd: 10.7 µM
[12]
  Kd: 11.3 µM
[13]
  Kd: 6.4 µM
[14]
  Kd: 4.3 ± 0.2 µM
[15]
  Kd: 75.8 ± 5.7 µM
[16]
  Kd: 14.1 ± 0.8 µM
[17]
  Kd: 182 ± 21.9 µM
[18]
  Kd: 41.7 ± 2.2 µM
[19]
  Kd: 28.1 ± 1.3 µM

B3: tri-methylated H3K4me3 peptide (residues 1-10) (peptide)
peptide: ARTKQTARKS
modifications: trimethyl-lysine at K4
notes: histone H3 N-terminal tail, residues 1-10; source: synthetic peptide, bought: GL Biochem Ltd. (Shanghai, China)
[13]
  Kd: 104 µM

— PMC4225485, “The PHD1 finger of KDM5B recognizes unmodified H3K4 during the demethylation of histone H3K4me2/3 by KDM5B” (Protein & Cell, 2014)
